Experimental data reported in patent publication US20110318339A1 (FABRUS, published 2011).

B1: Fab VH5-51_IGHD5-18*01>3_IGHJ4*01 H:KT TRV & V3-4_IGLJ1*01 L:LP S52G (Fab, V domains shown)
VH: EVQLVQSGAEVKKPGESLKISCKTSGYRFTSYWIVWVRQMPGKGLEWMGIIYPGDSDTRYSPSFQGQVTISADKSISTAYLQWSSLKASDTAMYYCARRKYSYTYDYFDYWGQGTLVTVSS
VL: QTVVTQEPSFSVSPGGTVTLTCGLSSGSVSTSYYPSWYQQTPGQAPRTLIYGTNTRSSGVPDRFSGSILGNKAALTITGAQADDESDYYCLLYMGPGISYVFGTGTKVTVL
notes: Fab, lambda light chain; also called Fab H:KT TRV & L:LP S52G
B2: Fab VH1-46_IGHD6-6*01_IGHJ1*01 S102A/S103P/S104F/H111F & L6_IGKJ1*01 S28N/S30D/S31H (Fab, V domains shown)
VH: QVQLVQSGAEVKKPGASVKVSCKASGYTFTSYYMHWVRQAPGQGLEWMGIINPSGGSTSYAQKFQGRVTMTRDTSTSTVYMELSSLRSEDTAVYYCAREEYAPFSAEYFQFWGQGTLVTVSS
VL: EIVLTQSPATLSLSPGERATLSCRASQNVDHYLAWYQQKPGQAPRLLIYDASNRATGIPARFSGSGSGTDFTLTISSLEPEDFAVYYCQQRSNWPPWTFGQGTKVEIKR
notes: Fab made in E. coli: VH on CH1 with His6 and Flag tags (Plasmid A), VL on kappa CL (Plasmid C); also called H: APFF & L: NDH

Assays:
[1] = target: T1, DLL4 DSL (amino acid: 1-217) construct (human, UniProt Q9NR61 26-217); experiment: Western blot, non-reducing
T1 construct: also called DSL construct; not shown: myc tag (and his tag) added by the PCR primers
Experimental: (§1) Media from transfected CHO cells was collected after 7 days. To enrich for the DLL4 protein, 1 ml aliquots of each sample were batch bound with 50 μl of Talon Resin for 30 minutes. To confirm protein production media samples were tested with mouse anti-c-myc mAb (Genescript; Catalog # A00704). Samples were washed and then boiled with loading dye in the presence or absence of DTT. A gel was run on each of the 2 samples for each condition: with DTT and without DTT. […] For detection goat anti-mouse HRP, goat anti-kappa HRP, and goat anti-lambda HRP were used, respectively.

[2] = target: T2, DLL4 Egf1 (amino acid: 1-251) construct (human, UniProt Q9NR61 26-251); experiment: Western blot, non-reducing
T2 construct: also called EGF1 construct; not shown: myc tag (and his tag) added by the PCR primers
Experimental: as §1

[3] = target: T3, DLL4 Egf2 (amino acid: 1-282) construct (human, UniProt Q9NR61 26-282); experiment: Western blot, non-reducing
T3 construct: also called EGF2 construct; not shown: myc tag (and his tag) added by the PCR primers
Experimental: as §1

[4] = target: T4, recombinant human DLL4 (Cat# 1506-D4/CF, R&D Systems) (human, UniProt Q9NR61 27-529); experiment: ELISA, DLL4 coated, Fab 100 nM
T4 construct: Bought protein; also called hDLL4; rHuman DLL4
Experimental: (§2) The plate was blocked by adding 1% BSA in Tris-buffered Saline Tween (TBST) and incubating for 1 hour at room temperature followed by washing 2 times with 150 μl TBST. A Fab antibody was serially diluted in 1% BSA in PBS. A 50 μl aliquot of each serial dilution was added, in triplicate, to each well and the plate was incubated for 1 hour at room temperature followed by washing 2 times with TBST. 50 μl of either goat anti-human kappa HRP conjugated secondary antibody (Cat # A7164-1 mL, Sigma-Aldrich) or goat anti-human lambda HRP conjugated secondary antibody (Cat # L1645-1 ml, Sigma-Aldrich), diluted 1:1000 in 1% BSA in PBS, was added to each well and the plate was incubated for 30 minutes at room temperature followed by washing 3 times with 200 μl TBST. Finally, 50 μl TMB one-component reagent (Cat # TMBW-1000-01, BioFax) was added and allowed to develop for 2 minutes at room temperature. The reaction was immediately halted by the addition of 50 μl 0.5M H₂SO₄ and the absorbance at 450 nm was measured using an ELISA plate reader.

[5] = target: T4, recombinant human DLL4 (Cat# …); experiment: ELISA, DLL4 coated, Fab 6.25 nM
Experimental: as §2

[6] = target: T4, recombinant human DLL4 (Cat# …); experiment: SPR (ProteOn), hDLL4 amine-coupled on chip; 2-site binding, 89% of it by the footnote
Experimental: (§3) In this example, the binding affinities of selected anti-DLL4 Fabs to recombinant human DLL4 (hDLL4, Cat# 1506-D4/CF, R&D Systems) were analyzed using Surface Plasmon Resonance (SPR) (Biosensor Tools, Salt Lake City, Utah). The Fabs analyzed include germline-derived antibodies and germline-modified DLL4 antibodies. Recombinant hDLL4 was immobilized on a SPR chip using amine coupling at three different surface densities. The Fabs were serially diluted 3-fold, with an initial concentration of 1 μM. Binding studies were run on a ProteOn system using a GLM sensor chip in 10 mM HEPES, pH 7.4, 150 mM NaCl, 0.01% Tween-20, and 0.1 mg/ml BSA at 25° C. The response data from each surface was globally fit to determine the binding constants.

[7] = target: T4, recombinant human DLL4 (Cat# …); experiment: ELISA, DLL4 coated, Fab 50 nM
Experimental: as §2

[8] = target: T4, recombinant human DLL4 (Cat# …); experiment: SPR (ProteOn), hDLL4 amine-coupled on chip
In short: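 Binding constants came from global fits of response data per surface. Three densities of amine-immobilised DLL4 were used, and Fabs started at 1 μM with 3-fold dilutions. Running buffer was HEPES 10 mM pH 7.4, NaCl 150 mM, Tween-20 0.01%, BSA 0.1 mg/ml at 25° C on a GLM chip.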

[9] = target: T4, recombinant human DLL4 (Cat# …); experiment: ELISA, DLL4 coated, Fab 50 nM; remark: listed apart in the source
Experimental: as §2

[10] = target: T4, recombinant human DLL4 (Cat# …); experiment: ELISA, DLL4 coated, Fab 3.125 nM
Experimental: as §2

[11] = target: T4, recombinant human DLL4 (Cat# …); experiment: SPR (ProteOn), hDLL4 amine-coupled on chip; 2-site binding, 10% of it by the footnote
Experimental: as §3

[12] = target: T4, recombinant human DLL4 (Cat# …); experiment: ELISA, DLL4 coated, Fab 12.5 nM
Experimental: as §2

[13] = target: T4, recombinant human DLL4 (Cat# …); experiment: ELISA, DLL4 coated, Fab 75 nM
[14] = target: T4, recombinant human DLL4 (Cat# …); experiment: ELISA, DLL4 coated, Fab 100 nM; remark: listed apart in the source
[15] = target: T4, recombinant human DLL4 (Cat# …); experiment: ELISA, DLL4 coated, Fab 25 nM
In short: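 Block 1% BSA/TBST 1 h RT; Fab serial dilutions (1% BSA/PBS, triplicate) 1 h RT; HRP anti-human kappa or lambda 1:1000, 30 min RT; TMB 2 min; 0.5M H₂SO₄ stop; OD450.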

Binder	binding result [1]	binding result [2]	binding result [3]	ELISA absorbance at 450 nm [4]	ELISA absorbance at 450 nm [5]	Kd [6]	ELISA absorbance at 450 nm [7]	koff [8]	kon [8]	ELISA absorbance at 450 nm [9]	ELISA absorbance at 450 nm [10]	Kd [11]	ELISA absorbance at 450 nm [12]	ELISA absorbance at 450 nm [13]	ELISA absorbance at 450 nm [14]	ELISA absorbance at 450 nm [15]
B1	no binding (tested: 20 nM Fab)	no binding (tested: 20 nM Fab)	no binding (tested: 20 nM Fab)	–	–	–	–	–	–	–	–	–	–	–	–	–
B2	–	–	–	0.686 A450	0.125 A450	155 nM	0.202 A450	0.0689 s⁻¹	444000 M⁻¹ s⁻¹	0.507 A450	0.096 A450	14 nM	0.192 A450	0.268 A450	0.259 A450	0.31 A450
